± gives the uncertainty stated by the source.
Experiment: self-splicing fitness, log relative to wild type (ln ratio); higher = more splicing; Tetrahymena group I intron in knt gene, E. coli kanamycin selection, DiMSum; sequences stand for … in CUCUCU…GGAGGGAAAAGUUAUCAGGCAUGCACCUGGUAGCUAGUCUUUAAACCAAUAGAUUGCAUCGGUUUAAAAGGCAAGACCGUCAAAUUGCGGGAAAGGGGUCAACAGCCGUUCAGUACCAAGUCUCAGGGGAAACUUUGAGAUGGCCUUGCAAAGGGUAUGGUAAUAAGCUGACGGACAUGGUCCUAACCACGCAGCCAAGUCCUAAGUCAACAGAUCUUCUGUUGAUAUGGAUGCAGUUCACAGACUAAAUGUCGGUCGGGGAAGAUGUAUUCUUCUCAUAAGAUAUAGUCGGACCUCUCCUUAAUGGGAGCUAGCGGAUGAAGUGAUGCAACACUGGAGCCGCUGGGAACUAAUUUGUAUGCGAAAGUAUAUUGAUUAGUUUUGGAGUACUCGUGGUCG
Method in brief: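 Library with all eight P1ex-region intron nucleotides randomised, intron inside the knt kanamycin-resistance gene on pET-22b(+), in E. coli BL21(DE3). Cells grew overnight at 37°C or 30°C on LB agar with or without 25 μg/mL kanamycin (plus 100 μg/mL carbenicillin, 50 μM IPTG, 0.2% rhamnose), in six replicate transformations. Pooled colonies were amplicon-sequenced on Illumina HiSeq 2500. DiMSum fitness is the error-weighted combination of wild-type-normalised replicate fold changes, kanamycin versus none.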

Row | Sequence | self-splicing fitness (ln) (30 °C) | self-splicing fitness (ln) (37 °C)
1 | UUGCAGCAAUAUUACGAGUA | -1.92 ± 0.16 | -1.42 ± 0.15
2 | UUGCAGCAAUAUUACGAUAC | – | -1.74 ± 0.47
3 | UUGCAGCAAUAUUACGCACC | -0.223 ± 0.47 | –
4 | UUGCAGCAAUAUUACGCGCU | -1.88 ± 0.18 | -0.656 ± 0.19
5 | UUGCAGCAAUAUUACGCUUG | -3.08 ± 0.27 | -1.97 ± 0.29
6 | UUGCAGCAAUAUUACGGCAC | -0.586 ± 0.17 | -0.741 ± 0.19
7 | UUGCAGCAAUAUUACGGUCA | 0.208 ± 0.12 | 0.556 ± 0.11
8 | UUGCAGCAAUAUUACGGUUG | -3.07 ± 0.15 | -2.04 ± 0.15
9 | UUGCAGCAAUAUUACGGUUU | -1.37 ± 0.085 | -0.603 ± 0.085
10 | UUGCAGCAAUAUUACGUCCA | -0.493 ± 0.1 | 0.00855 ± 0.088
11 | UUGCAGCAAUAUUACGUCCU | -0.816 ± 0.14 | -0.682 ± 0.18
12 | UUGCAGCAAUAUUACGUCGU | -1.8 ± 0.16 | -1.17 ± 0.2
13 | UUGCAGCAAUAUUACGUCUA | -0.361 ± 0.11 | -0.0705 ± 0.11
14 | UUGCAGCAAUAUUACGUUGA | -1.61 ± 0.12 | -1.24 ± 0.12
15 | UUGGAGCAAUAUUACGAAAG | -2.5 ± 0.33 | -2.08 ± 0.37
16 | UUGGAGCAAUAUUACGACCU | -2.97 ± 0.32 | -0.7 ± 0.38
17 | UUGGAGCAAUAUUACGAGCA | -3.18 ± 0.37 | -1.74 ± 0.31
18 | UUGGAGCAAUAUUACGAGUG | -4.05 ± 0.33 | -3.04 ± 0.24
19 | UUGGAGCAAUAUUACGCGUU | -2.97 ± 0.47 | -2.47 ± 0.34
20 | UUGGAGCAAUAUUACGGACA | -2.52 ± 0.49 | -1.91 ± 0.18
21 | UUGGAGCAAUAUUACGGUGA | -1.27 ± 0.22 | -1.36 ± 0.14
22 | UUGGAGCAAUAUUACGUCUA | -1.99 ± 0.34 | -2.49 ± 0.3
23 | UUGGAGCAAUAUUACGUGUC | -3.26 ± 0.22 | -2.77 ± 0.38
24 | UUGUAGCAAUAUUACGAAUA | -1.74 ± 0.15 | -1.64 ± 0.14
25 | UUGUAGCAAUAUUACGAAUC | -3.06 ± 0.14 | -2.76 ± 0.24

Row | Sequence | self-splicing fitness (ln) (30 °C) | self-splicing fitness (ln) (37 °C)
26 | UUGUAGCAAUAUUACGAGGU | -2.82 ± 0.2 | -2.61 ± 0.36
27 | UUGUAGCAAUAUUACGAUUG | -2.16 ± 0.15 | -1.42 ± 0.2
28 | UUGUAGCAAUAUUACGCAAA | -2.73 ± 0.35 | -1.05 ± 0.26
29 | UUGUAGCAAUAUUACGGGCG | -1.05 ± 0.14 | 0.346 ± 0.2
30 | UUGUAGCAAUAUUACGUAAU | -2.9 ± 0.22 | -2.37 ± 0.24
31 | UUGUAGCAAUAUUACGUAUG | -1.99 ± 0.14 | -1.42 ± 0.16
32 | UUGUAGCAAUAUUACGUCGU | -3.78 ± 0.26 | -2.44 ± 0.2
33 | UUGUAGCAAUAUUACGUUAU | -2.7 ± 0.41 | -2.1 ± 0.25
34 | UUGUAGCAAUAUUACGUUCA | -1.07 ± 0.11 | -0.717 ± 0.13
35 | UUGUAGCAAUAUUACGUUGU | -3.77 ± 0.27 | -2.81 ± 0.24
36 | UUGUAGCAAUAUUACGUUUG | -1.83 ± 0.15 | -1.87 ± 0.2
37 | UUUAAGCAAUAUUACGAAAC | – | -1.01 ± 0.39
38 | UUUAAGCAAUAUUACGAACA | -0.6 ± 0.17 | -0.353 ± 0.19
39 | UUUAAGCAAUAUUACGAAUG | -1.54 ± 0.13 | -0.41 ± 0.15
40 | UUUAAGCAAUAUUACGAAUU | -1.6 ± 0.17 | -1.58 ± 0.2
41 | UUUAAGCAAUAUUACGACUC | -0.391 ± 0.24 | -0.881 ± 0.4
42 | UUUAAGCAAUAUUACGAGUA | -1.72 ± 0.19 | -1.06 ± 0.19
43 | UUUAAGCAAUAUUACGAUCG | -0.416 ± 0.12 | 0.237 ± 0.17
44 | UUUAAGCAAUAUUACGCAUA | -3.17 ± 0.2 | -0.829 ± 0.14
45 | UUUAAGCAAUAUUACGCGUA | -1.4 ± 0.14 | -0.828 ± 0.13
46 | UUUAAGCAAUAUUACGCUUG | -3.29 ± 0.23 | -1.4 ± 0.26
47 | UUUAAGCAAUAUUACGGCGU | -1.29 ± 0.27 | -0.169 ± 0.34
48 | UUUAAGCAAUAUUACGGGGC | -2.77 ± 0.3 | -3.55 ± 0.3
49 | UUUAAGCAAUAUUACGGGUU | -2.83 ± 0.3 | -1.67 ± 0.22
50 | UUUAAGCAAUAUUACGGUAC | -2.22 ± 0.28 | –

Row | Sequence | self-splicing fitness (ln) (30 °C) | self-splicing fitness (ln) (37 °C)
51 | UUUAAGCAAUAUUACGGUAU | -3.05 ± 0.17 | -0.94 ± 0.17
52 | UUUAAGCAAUAUUACGUAAG | -0.0425 ± 0.074 | 0.296 ± 0.094
53 | UUUAAGCAAUAUUACGUACG | -0.346 ± 0.16 | 0.322 ± 0.17
54 | UUUAAGCAAUAUUACGUAUC | – | -1.84 ± 0.33
55 | UUUAAGCAAUAUUACGUCUG | -0.513 ± 0.1 | -0.114 ± 0.12
56 | UUUAAGCAAUAUUACGUGGA | -1.99 ± 0.18 | -1.56 ± 0.2
57 | UUUAAGCAAUAUUACGUUCG | -0.639 ± 0.093 | -0.169 ± 0.12
58 | UUUCAGCAAUAUUACGACAU | -1.41 ± 0.015 | -0.565 ± 0.033
59 | UUUCAGCAAUAUUACGACCG | 0.263 ± 0.18 | -0.377 ± 0.29
60 | UUUCAGCAAUAUUACGAGGU | -3.53 ± 0.2 | -2.78 ± 0.24
61 | UUUCAGCAAUAUUACGAUCG | -0.997 ± 0.099 | -0.152 ± 0.14
62 | UUUCAGCAAUAUUACGAUUG | -0.724 ± 0.087 | -0.057 ± 0.11
63 | UUUCAGCAAUAUUACGCACU | -0.429 ± 0.077 | -0.09 ± 0.092
64 | UUUCAGCAAUAUUACGCGAU | -3.39 ± 0.15 | -2.47 ± 0.16
65 | UUUCAGCAAUAUUACGCGCU | -3.54 ± 0.5 | –
66 | UUUCAGCAAUAUUACGCGGC | -2.67 ± 0.25 | -1.74 ± 0.27
67 | UUUCAGCAAUAUUACGCGGG | -2.27 ± 0.12 | -2.35 ± 0.15
68 | UUUCAGCAAUAUUACGGAAG | -1.69 ± 0.12 | -0.536 ± 0.19
69 | UUUCAGCAAUAUUACGGAUC | -1.14 ± 0.07 | -0.289 ± 0.089
70 | UUUCAGCAAUAUUACGGGAG | -0.794 ± 0.07 | -0.0774 ± 0.1
71 | UUUCAGCAAUAUUACGGGGA | -2.43 ± 0.24 | -0.33 ± 0.16
72 | UUUCAGCAAUAUUACGGGUC | -3.24 ± 0.26 | -2.14 ± 0.2
73 | UUUCAGCAAUAUUACGGUAC | -1.9 ± 0.41 | -2.1 ± 0.26
74 | UUUCAGCAAUAUUACGGUGA | -0.66 ± 0.056 | -0.395 ± 0.064
75 | UUUCAGCAAUAUUACGUACG | -0.905 ± 0.12 | -0.18 ± 0.11

Row | Sequence | self-splicing fitness (ln) (30 °C) | self-splicing fitness (ln) (37 °C)
76 | UUUCAGCAAUAUUACGUCUC | -3.39 ± 0.4 | -0.735 ± 0.17
77 | UUUCAGCAAUAUUACGUGGC | -2.68 ± 0.15 | -2.94 ± 0.22
78 | UUUCAGCAAUAUUACGUGGG | -2.4 ± 0.14 | -1.95 ± 0.12
79 | UUUCAGCAAUAUUACGUUAG | -1.31 ± 0.11 | -0.474 ± 0.12
80 | UUUGAGCAAUAUUACGAACU | -3.36 ± 0.28 | -2.77 ± 0.31
81 | UUUGAGCAAUAUUACGACCG | – | -1.19 ± 0.4
82 | UUUGAGCAAUAUUACGAUAA | -1.25 ± 0.087 | -0.386 ± 0.095
83 | UUUGAGCAAUAUUACGAUUG | -3.75 ± 0.47 | -2.41 ± 0.31
84 | UUUGAGCAAUAUUACGCAAC | – | -1.71 ± 0.26
85 | UUUGAGCAAUAUUACGCGAU | – | -2.19 ± 0.4
86 | UUUGAGCAAUAUUACGCGGU | -2.67 ± 0.28 | -2.37 ± 0.35
87 | UUUGAGCAAUAUUACGCGUU | -2.4 ± 0.18 | -2.86 ± 0.42
88 | UUUGAGCAAUAUUACGCUGG | -2.04 ± 0.11 | -2.01 ± 0.14
89 | UUUGAGCAAUAUUACGCUUG | -3.52 ± 0.37 | -1.63 ± 0.4
90 | UUUGAGCAAUAUUACGGCCG | -2.02 ± 0.35 | –
91 | UUUGAGCAAUAUUACGGUAA | -2.38 ± 0.29 | -1.94 ± 0.25
92 | UUUGAGCAAUAUUACGGUUG | -1.79 ± 0.2 | -0.702 ± 0.36
93 | UUUGAGCAAUAUUACGUAAC | -2.01 ± 0.5 | –
94 | UUUGAGCAAUAUUACGUGUC | -4.05 ± 0.42 | -2.79 ± 0.27
95 | UUUGAGCAAUAUUACGUGUU | -2.61 ± 0.32 | -3.3 ± 0.33
96 | UUUGAGCAAUAUUACGUUUC | – | -2.62 ± 0.35
97 | UUUUAGCAAUAUUACGAAGU | -3.02 ± 0.35 | -1.65 ± 0.46
98 | UUUUAGCAAUAUUACGAGAA | -0.897 ± 0.48 | -0.946 ± 0.19
99 | UUUUAGCAAUAUUACGAGCG | -1.02 ± 0.11 | -1.33 ± 0.1
